The target of one test is T1, Integrin α6β1 (Homo sapiens (Human), UniProt P23229 24-680; P05556 21-465).
T1 construct: Antigen of the TS2/16 and SG/19 antibodies
Nature of the test: peak shift in gel filtration chromatography. For orientation: In gel filtration, larger molecules generally elute earlier.

Test [1] deals with T2, SORLA (neuroral sorting receptor) Vps10p domain (Homo sapiens (Human), UniProt Q92673 86-753).
T2 construct: also called SORLA Vps10p domain
T2 sequence: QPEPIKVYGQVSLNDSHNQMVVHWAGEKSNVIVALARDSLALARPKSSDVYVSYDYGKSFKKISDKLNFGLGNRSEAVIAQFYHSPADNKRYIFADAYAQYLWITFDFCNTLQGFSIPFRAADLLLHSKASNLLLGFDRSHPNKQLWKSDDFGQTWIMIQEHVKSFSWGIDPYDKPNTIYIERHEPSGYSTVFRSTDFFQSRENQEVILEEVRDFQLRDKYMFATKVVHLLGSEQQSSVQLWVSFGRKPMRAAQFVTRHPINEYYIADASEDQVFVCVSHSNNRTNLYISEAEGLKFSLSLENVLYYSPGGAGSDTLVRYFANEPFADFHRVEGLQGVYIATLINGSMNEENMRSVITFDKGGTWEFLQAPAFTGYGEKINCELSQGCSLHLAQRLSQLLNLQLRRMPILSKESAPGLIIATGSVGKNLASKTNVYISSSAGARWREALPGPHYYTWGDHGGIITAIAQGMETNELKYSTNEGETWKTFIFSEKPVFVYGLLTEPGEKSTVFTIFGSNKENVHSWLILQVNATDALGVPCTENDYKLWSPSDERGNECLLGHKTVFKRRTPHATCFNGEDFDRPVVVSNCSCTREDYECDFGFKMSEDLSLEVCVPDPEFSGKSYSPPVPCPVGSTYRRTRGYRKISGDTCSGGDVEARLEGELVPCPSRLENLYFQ
Put plainly: peak shift in gel filtration chromatography.

Test [2] concerns the target T3, hepatocyte growth factor (HGF) (Homo sapiens (Human), UniProt P14210 388-728).
T3 construct: Antigen of the t8E4 and t1E4 antibodies
Nature of the test: X-ray crystal structure of the complex.

In a further test the target is T4, C8 peptide (PRGYPGQV).
T4 construct: Antigen molecule of the P20.1 antibody
T4 peptide: PRGYPGQV
Nature of the test: affinity chromatography on immobilised C8 peptide, eluted with free C8.

The target in test [3] is T3, hepatocyte growth factor (HGF). Nature of the test: peak shift in gel filtration chromatography.

Data on six molecules can be found in US20190276561A1 (FUJIFILM WAKO PURE CHEMICAL, published 2019).

T3 sequence (P14210 other isoform, or with tags, fused parts or gaps limits assumed): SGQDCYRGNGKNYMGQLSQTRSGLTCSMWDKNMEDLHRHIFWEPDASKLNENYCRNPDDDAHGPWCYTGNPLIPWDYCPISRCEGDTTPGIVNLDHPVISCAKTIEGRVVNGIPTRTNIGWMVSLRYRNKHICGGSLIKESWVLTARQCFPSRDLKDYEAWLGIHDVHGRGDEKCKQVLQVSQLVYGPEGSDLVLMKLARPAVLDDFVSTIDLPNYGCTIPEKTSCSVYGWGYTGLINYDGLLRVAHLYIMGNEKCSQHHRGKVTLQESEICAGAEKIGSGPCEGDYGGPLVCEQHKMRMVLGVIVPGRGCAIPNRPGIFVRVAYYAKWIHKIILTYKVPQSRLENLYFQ
T1 sequence (P23229 other isoform, or with tags, fused parts or gaps limits assumed, chain 1 of 2): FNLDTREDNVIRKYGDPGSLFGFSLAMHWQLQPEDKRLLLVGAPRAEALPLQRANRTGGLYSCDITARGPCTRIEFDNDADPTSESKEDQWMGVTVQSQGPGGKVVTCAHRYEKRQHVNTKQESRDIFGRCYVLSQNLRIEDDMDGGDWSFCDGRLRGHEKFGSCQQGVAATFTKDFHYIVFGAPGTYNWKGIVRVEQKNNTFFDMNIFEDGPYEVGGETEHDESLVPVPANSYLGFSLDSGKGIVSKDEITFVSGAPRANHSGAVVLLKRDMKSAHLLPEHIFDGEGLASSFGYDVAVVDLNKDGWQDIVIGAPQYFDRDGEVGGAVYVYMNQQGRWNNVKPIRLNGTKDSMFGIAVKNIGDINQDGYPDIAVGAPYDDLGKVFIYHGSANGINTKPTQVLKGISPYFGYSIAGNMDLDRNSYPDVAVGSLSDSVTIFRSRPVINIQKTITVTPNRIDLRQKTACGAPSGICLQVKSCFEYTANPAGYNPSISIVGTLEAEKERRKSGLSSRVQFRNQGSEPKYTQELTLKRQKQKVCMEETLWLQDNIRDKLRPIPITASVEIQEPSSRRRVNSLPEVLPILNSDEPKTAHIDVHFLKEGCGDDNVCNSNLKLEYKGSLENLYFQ
T1 sequence (P05556 other isoform, or with tags, fused parts or gaps limits assumed, chain 2 of 2): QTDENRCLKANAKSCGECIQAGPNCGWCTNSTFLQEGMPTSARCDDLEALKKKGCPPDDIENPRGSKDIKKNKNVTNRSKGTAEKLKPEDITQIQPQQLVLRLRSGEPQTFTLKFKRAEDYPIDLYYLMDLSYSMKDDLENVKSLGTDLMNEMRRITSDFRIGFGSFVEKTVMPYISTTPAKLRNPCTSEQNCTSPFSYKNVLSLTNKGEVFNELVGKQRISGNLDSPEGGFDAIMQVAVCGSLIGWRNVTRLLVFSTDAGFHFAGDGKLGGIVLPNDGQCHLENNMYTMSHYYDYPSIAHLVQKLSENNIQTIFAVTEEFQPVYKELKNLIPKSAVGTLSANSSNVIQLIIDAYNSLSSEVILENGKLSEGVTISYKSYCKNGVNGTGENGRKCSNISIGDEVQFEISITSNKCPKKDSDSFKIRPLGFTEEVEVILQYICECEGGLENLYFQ

B1: TS2/16 antibody-Fv-clasp (v2) (other)
VH: MDVKLVESGGGLVKPGGSLKLSCAASGFTFSSYTMSWVRQTPEKRLEWVATISSGGSYTYYPDSVKGRFTISRDKAKNTLYLQMGSLKSEDTAMYYCTRIGYDEDYAMDHWGQGTSVTVCSGSDYEFLKSWTVEDLQKRLLALDPMMEQEIEEIRQKYQSKRQPILDAIEAK
VL: MQIVVTQRPTTMAASPGDKIIITCSVSSIISSNYLHWYSQKPGFSPKLLIYRTSNLASGVPPRFSGSGSGTSYSLTIGTMEAEDVATYYCQQGSDIPLTFGDGTKLDLKRGSDYEFLKSWTVEDLQKRLLALDPMMEQEIEEIRQKYQCKRQPILDAIEAK
notes: also called Fv-clasp (v2) against TS2/16 antibody
In the case of B1, the binding result in the test with Integrin α6β1 was “binds”.

B2: 93201 antibody-Fv-clasp (v2) (other)
VH: MEVQLQQSGAELVKPGASVKLSCTASGFNIQDTYIHWVKQRPEQGLDWIGRIDPANGNTKYDPNFQGKATITADTSSNTAYLQLSSLASEDTAVYYCATSNYYSRGAMDYWGQGTSVTVCSGSDYEFLKSWTVEDLQKRLLALDPMMEQEIEEIRQKYQSKRQPILDAIEAK
VL: MDIVLTQSPASLAVSLGQRATISCRASESVEYYGTNLMHWYQQKPGQPPKLLIYVASTVKSGVPARFSGSGSGTDFSLNIHPVEEDDIAMYFCQQSRKVPWTFGGGTRLEIKRGSDYEFLKSWTVEDLQKRLLALDPMMEQEIEEIRQKYQCKRQPILDAIEAK
Consider B2, for which the binding result in test [1] is recorded as “binds”.

B3: t1E4 antibody-Fv-clasp (v2) (other)
VH: MKQGQLQQSGPELVKPGASVKISCKASGYVFSSSWMNWVKQRPGKGLEWIGRIYPGYGDTNYNGKFKGKATLTADKSSSTAYMQLSSLTSEDSAVYFCVREELGPYWYFDVWGAGTTVTVCSGSDYEFLKSWTVEDLQKRLLALDPMMEQEIEEIRQKYQSKRQPILDAIEAK
VL: MDVVMTQTPLSLPVSLGDQASISCRSSQSLVHSNGNTYLHWYLQKPGQSPKLLIYKVSNRFSGVPDRFSGSGSGTDFTLKISRVEAEDLGVYFCSQSTHVPYTFGSGTKLEIKRGSDYEFLKSWTVEDLQKRLLALDPMMEQEIEEIRQKYQCKRQPILDAIEAK
notes: also called Fv-clasp (v2) against t1E4 antibody
With B3, the binding result in test [2] is “binds”.

B4: P20.1 antibody-Fv-clasp (v1) obtained in the E. coli expression system (Comparative Example 1) (other)
VH: MQIQLVQSGPEVQKPGETVRISCKASGYTFTTAGMQWVQKMPGKSLKWIGWINTRSGVPKYAEDFKGRFAFSLETSASIAYLHINNLKNEDTATYFCAREGPGFVYWGQGTLVTVSSGSDYEFLKSWTVEDLQKRLLALDPMMEQEIEEIRQKCQSKRQPILDAIEAK
VL: MGQTVVTQESALTTSPGETVTLTCRSSTGAVTTSNYANWVQEKPDHLFTGLIVGTNNRVPGVPPRFSGSLIEDKAALTITGAQTEDEAIYFCALWYSNHWVFGGGTKLTVLGGSDYEFLKSWTVEDLQKRLLALDPMCEQEIEEIRQKYQSKRQPILDAIEAK
notes: Fv-clasp fragment antibody: heterodimer of VH-SARAH and VL-SARAH linked by a disulfide between Cys35 and Cys24 of the two SARAH domains; also called Fv-clasp (v1) against P20.1 antibody; Fv-clasp (v1) of P20.1 antibody
As for B4, the binding result in the test with C8 peptide (PRGYPGQV) is reported as “binds”.

B5: SG/19 antibody-Fv-clasp (v2) (other)
VH: MQVHLQQSGAELMKPGASVKISCKATGYTFTSYWIEWVKQRPGHGLEWLGEILPGSGYIHYNEKFKGKATFTTDTSSNTAYMQLSSLTSEDSAVYYCSRALALYAMDYWGQGTSVTVCSGSDYEFLKSWTVEDLQKRLLALDPMMEQEIEEIRQKYQSKRQPILDAIEAK
VL: MDIVMTQATPSIPVTPGESVSISCRSNKSLLHSNGNTYLYWFLQRPGQSPRLLIFRMSNLASGVPDRFSGSGSGTAFTLRISRVEAADVGIYFCLQHLEYPFTFGAGTKLELKRGSDYEFLKSWTVEDLQKRLLALDPMMEQEIEEIRQKYQCKRQPILDAIEAK
notes: also called Fv-clasp (v2) against SG/19 antibody
Take B5: in the test with Integrin α6β1, the binding result is reported as “binds”.

B6: t8E4 antibody-Fv-clasp (v2) (other)
VH: MKQVQLKESGPDLVQPSQTLSLTCTVSGFSLTGYGVHWVRQPPGKGLEWVGTLGWNDKKYYNSALKSRLSISRDTSKNQVFLKLSSLETEDTAMYYCTRDGGLLFAYYAMDYWGQGTSVTVCSGSDYEFLKSWTVEDLQKRLLALDPMMEQEIEEIRQKYQSKRQPILDAIEAK
VL: MDIQMTQTTSSLSASLGDRVTFSCRASQDISNYLNWYQQKPDGTVKLLIFYTSRLHSGVPSRFSGSGSGTDYSLTIANLEQEDFATYFCQQDSKHPFTFGSGTKLEIKRGSDYEFLKSWTVEDLQKRLLALDPMMEQEIEEIRQKYQCKRQPILDAIEAK
notes: also called Fv-clasp (v2) against t8E4 antibody
As to B6, the binding result in test [3] is “binds”.
